# Experimental data taken from patent US20080214461.
# Legend:
# [1] = target: factor X (FX) (UniProt P00742)
# [2] = target: activated factor VIII (FVIIIa): Recombinate Antihemophilic Factor activated with thrombin (UniProt P00451)
# Chain of UniProt P00451 (P00451 other isoform, or with tags, fused parts or gaps): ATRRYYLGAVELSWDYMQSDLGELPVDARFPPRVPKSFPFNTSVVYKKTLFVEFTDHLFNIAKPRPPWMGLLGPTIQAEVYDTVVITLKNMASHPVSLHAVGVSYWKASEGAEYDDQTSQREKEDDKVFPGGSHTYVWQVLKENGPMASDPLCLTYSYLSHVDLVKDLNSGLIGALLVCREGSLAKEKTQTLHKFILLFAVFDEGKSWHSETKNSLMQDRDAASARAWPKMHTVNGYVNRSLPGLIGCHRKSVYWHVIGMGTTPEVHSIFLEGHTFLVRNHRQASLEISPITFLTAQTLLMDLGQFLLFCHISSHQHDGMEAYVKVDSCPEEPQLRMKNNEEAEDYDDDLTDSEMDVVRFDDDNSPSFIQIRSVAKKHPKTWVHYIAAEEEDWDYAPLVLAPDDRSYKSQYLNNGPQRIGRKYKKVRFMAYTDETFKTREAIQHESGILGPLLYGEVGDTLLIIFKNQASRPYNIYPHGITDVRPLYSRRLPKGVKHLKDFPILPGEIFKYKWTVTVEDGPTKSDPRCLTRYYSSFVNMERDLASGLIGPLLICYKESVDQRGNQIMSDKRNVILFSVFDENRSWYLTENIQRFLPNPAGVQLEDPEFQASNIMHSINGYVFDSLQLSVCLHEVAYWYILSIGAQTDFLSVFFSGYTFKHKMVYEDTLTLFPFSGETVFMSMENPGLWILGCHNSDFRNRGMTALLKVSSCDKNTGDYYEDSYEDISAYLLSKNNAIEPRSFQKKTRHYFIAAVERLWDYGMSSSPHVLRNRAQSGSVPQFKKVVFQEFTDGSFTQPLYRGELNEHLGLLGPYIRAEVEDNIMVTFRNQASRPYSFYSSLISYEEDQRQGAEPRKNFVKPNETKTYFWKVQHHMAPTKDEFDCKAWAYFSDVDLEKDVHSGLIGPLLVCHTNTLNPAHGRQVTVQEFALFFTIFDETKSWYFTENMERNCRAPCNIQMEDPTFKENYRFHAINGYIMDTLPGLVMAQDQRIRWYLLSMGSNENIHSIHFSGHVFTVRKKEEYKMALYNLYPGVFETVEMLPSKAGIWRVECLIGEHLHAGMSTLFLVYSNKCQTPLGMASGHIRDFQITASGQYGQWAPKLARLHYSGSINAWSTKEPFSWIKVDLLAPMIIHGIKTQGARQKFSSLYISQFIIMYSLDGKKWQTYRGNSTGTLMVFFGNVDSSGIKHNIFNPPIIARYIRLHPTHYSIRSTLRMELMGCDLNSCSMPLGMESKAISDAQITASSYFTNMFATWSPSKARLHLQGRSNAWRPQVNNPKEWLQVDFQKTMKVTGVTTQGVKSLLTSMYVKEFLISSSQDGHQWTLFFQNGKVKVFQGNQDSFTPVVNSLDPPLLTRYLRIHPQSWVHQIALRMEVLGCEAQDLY
# Chain of plasma derived FIX (pdFIX), activated form pdFIXa (chain): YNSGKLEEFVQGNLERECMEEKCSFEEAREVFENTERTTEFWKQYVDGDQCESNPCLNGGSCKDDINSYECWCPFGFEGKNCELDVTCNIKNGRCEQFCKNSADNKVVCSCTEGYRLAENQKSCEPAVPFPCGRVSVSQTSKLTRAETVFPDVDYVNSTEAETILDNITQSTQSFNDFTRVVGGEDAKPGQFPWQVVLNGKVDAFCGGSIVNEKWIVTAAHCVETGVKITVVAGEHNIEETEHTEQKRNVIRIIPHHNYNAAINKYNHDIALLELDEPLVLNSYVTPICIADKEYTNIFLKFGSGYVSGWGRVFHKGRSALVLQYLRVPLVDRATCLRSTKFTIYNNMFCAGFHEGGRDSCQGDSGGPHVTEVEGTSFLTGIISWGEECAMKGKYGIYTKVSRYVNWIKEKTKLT
# Chain of FIX wild type (recombinant, full length, HEK 293), activated form (chain): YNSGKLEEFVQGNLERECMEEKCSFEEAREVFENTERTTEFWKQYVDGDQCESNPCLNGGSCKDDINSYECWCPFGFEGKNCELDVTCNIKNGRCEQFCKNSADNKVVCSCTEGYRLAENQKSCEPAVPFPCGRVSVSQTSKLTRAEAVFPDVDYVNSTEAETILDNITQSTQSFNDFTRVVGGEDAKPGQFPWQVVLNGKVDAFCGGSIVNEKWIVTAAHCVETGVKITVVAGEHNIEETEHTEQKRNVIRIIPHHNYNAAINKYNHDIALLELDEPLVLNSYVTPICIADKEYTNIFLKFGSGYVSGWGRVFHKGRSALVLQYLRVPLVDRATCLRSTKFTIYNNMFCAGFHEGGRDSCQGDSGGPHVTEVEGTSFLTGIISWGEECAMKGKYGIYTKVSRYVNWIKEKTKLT
# Chain of UniProt P00742 (P00742 41-488): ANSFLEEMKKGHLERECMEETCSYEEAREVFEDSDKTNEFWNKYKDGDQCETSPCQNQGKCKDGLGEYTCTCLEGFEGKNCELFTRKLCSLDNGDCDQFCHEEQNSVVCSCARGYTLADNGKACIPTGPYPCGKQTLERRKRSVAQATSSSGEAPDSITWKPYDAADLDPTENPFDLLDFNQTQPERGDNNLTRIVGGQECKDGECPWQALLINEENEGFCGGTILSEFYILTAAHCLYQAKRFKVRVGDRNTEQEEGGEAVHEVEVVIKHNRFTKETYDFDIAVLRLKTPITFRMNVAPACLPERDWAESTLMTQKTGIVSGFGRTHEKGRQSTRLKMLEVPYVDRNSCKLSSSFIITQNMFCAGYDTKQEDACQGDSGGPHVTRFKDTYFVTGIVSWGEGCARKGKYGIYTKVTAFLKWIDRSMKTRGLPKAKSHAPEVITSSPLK
Substance,"KM (nM), FX activation with FVIIIa [1] [nM]","KM (nM), FX activation without FVIIIa [1] [nM]","kcat (10^-3 min^-1), FX activation without FVIIIa [1] [s⁻¹]","kcat (min^-1), FX activation with FVIIIa [1] [min⁻¹]","kcat/KM (10^-6 nM^-1 min^-1), FX activation without FVIIIa [1] [M⁻¹ s⁻¹]","kcat/KM (nM^-1 min^-1), FX activation with FVIIIa [1] [M⁻¹ s⁻¹]",rate of FX activation against pdFIXa [1],ratio kcat/KM +/- FVIIIa (FX activation) [2]
"FIX wild type (recombinant, full length, HEK 293), activated form",11,68,0.000283,102,4200,1.5e+08,FIX-WT and FIX-Y94F/K98T/Y177F activated FX at the same rate as pdFIXa,"36,695"
"plasma derived FIX (pdFIX), activated form pdFIXa",13,65,0.000217,131,3250,1.67e+08,,"52,430"
